From patent publication US20260201008A1, “SECRETIN-DERIVED GLP1R SELECTIVE AGONISTS” (GUBRA A/S, priority 2023, published 2026)
Where two headings read alike, the source gives them in different places. Square brackets hold non-standard residues; d marks the D form. Ends that are not written are not given here. Aib = CC(C)(N)C(=O)O

How the values were obtained:
Test in all cases: cell-based or functional assay
[1] = target: T1, human secretin receptor (hSCTR) (human, UniProt P47872 23-440)
[2] = target: human GLP-1 receptor (hGLP1R) (human, UniProt P43220 24-463)
[3] = target: T1, human secretin receptor (hSCTR); remark: listed apart in the source

T1 sequence (P47872 23-440): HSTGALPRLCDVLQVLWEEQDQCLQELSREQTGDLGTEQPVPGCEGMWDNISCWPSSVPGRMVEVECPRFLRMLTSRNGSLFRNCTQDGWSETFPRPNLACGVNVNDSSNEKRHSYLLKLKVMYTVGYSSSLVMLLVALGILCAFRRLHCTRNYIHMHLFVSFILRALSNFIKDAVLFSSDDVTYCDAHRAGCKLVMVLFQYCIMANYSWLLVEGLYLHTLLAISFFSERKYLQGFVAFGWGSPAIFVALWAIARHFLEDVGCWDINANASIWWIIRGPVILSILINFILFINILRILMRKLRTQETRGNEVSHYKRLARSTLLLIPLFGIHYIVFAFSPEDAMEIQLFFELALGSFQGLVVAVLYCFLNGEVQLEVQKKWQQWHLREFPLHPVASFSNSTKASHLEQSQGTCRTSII

Row | Binder | pEC50 hSCTR [1] | pEC50 hGLPR1 [2] | pEC50 hSCTR [3]
1 | H[Aib]EGTFTSDWSRLLEGAALQRFIQWLV-NH2 (N-terminus assumed; SMILES CC[C@H](C)[C@H](NC(=O)[C@H](Cc1ccccc1)NC(=O)[C@H](CCCNC(=N)N)NC(=O)[C@H](CCC(N)=O)NC(=O)[C@H](CC(C)C)NC(=O)[C@H](C)NC(=O)[C@H](C)NC(=O)CNC(=O)[C@H](CCC(=O)O)NC(=O)[C@H](CC(C)C)NC(=O)[C@H](CC(C)C)NC(=O)[C@H](CCCNC(=N)N)NC(=O)[C@H](CO)NC(=O)[C@H](Cc1c[nH]c2ccccc12)NC(=O)[C@H](CC(=O)O)NC(=O)[C@H](CO)NC(=O)[C@@H](NC(=O)[C@H](Cc1ccccc1)NC(=O)[C@@H](NC(=O)CNC(=O)[C@H](CCC(=O)O)NC(=O)C(C)(C)NC(=O)[C@@H](N)Cc1c[nH]cn1)[C@@H](C)O)[C@@H](C)O)C(=O)N[C@@H](CCC(N)=O)C(=O)N[C@@H](Cc1c[nH]c2ccccc12)C(=O)N[C@@H](CC(C)C)C(=O)N[C@H](C(N)=O)C(C)C) [SEQ ID NO: 219] | 8.2 -log M | – | –
2 | H[Aib]EGTFTSDLSFLLEGAALQRFIQWLV-NH2 (N-terminus assumed; SMILES CC[C@H](C)[C@H](NC(=O)[C@H](Cc1ccccc1)NC(=O)[C@H](CCCNC(=N)N)NC(=O)[C@H](CCC(N)=O)NC(=O)[C@H](CC(C)C)NC(=O)[C@H](C)NC(=O)[C@H](C)NC(=O)CNC(=O)[C@H](CCC(=O)O)NC(=O)[C@H](CC(C)C)NC(=O)[C@H](CC(C)C)NC(=O)[C@H](Cc1ccccc1)NC(=O)[C@H](CO)NC(=O)[C@H](CC(C)C)NC(=O)[C@H](CC(=O)O)NC(=O)[C@H](CO)NC(=O)[C@@H](NC(=O)[C@H](Cc1ccccc1)NC(=O)[C@@H](NC(=O)CNC(=O)[C@H](CCC(=O)O)NC(=O)C(C)(C)NC(=O)[C@@H](N)Cc1c[nH]cn1)[C@@H](C)O)[C@@H](C)O)C(=O)N[C@@H](CCC(N)=O)C(=O)N[C@@H](Cc1c[nH]c2ccccc12)C(=O)N[C@@H](CC(C)C)C(=O)N[C@H](C(N)=O)C(C)C) [SEQ ID NO: 225] | – | 10.6 -log M | 8.1 -log M
3 | H[Aib]EGTFTSDLSYLLEGAALQRFIQWLV-NH2 (N-terminus assumed; SMILES CC[C@H](C)[C@H](NC(=O)[C@H](Cc1ccccc1)NC(=O)[C@H](CCCNC(=N)N)NC(=O)[C@H](CCC(N)=O)NC(=O)[C@H](CC(C)C)NC(=O)[C@H](C)NC(=O)[C@H](C)NC(=O)CNC(=O)[C@H](CCC(=O)O)NC(=O)[C@H](CC(C)C)NC(=O)[C@H](CC(C)C)NC(=O)[C@H](Cc1ccc(O)cc1)NC(=O)[C@H](CO)NC(=O)[C@H](CC(C)C)NC(=O)[C@H](CC(=O)O)NC(=O)[C@H](CO)NC(=O)[C@@H](NC(=O)[C@H](Cc1ccccc1)NC(=O)[C@@H](NC(=O)CNC(=O)[C@H](CCC(=O)O)NC(=O)C(C)(C)NC(=O)[C@@H](N)Cc1c[nH]cn1)[C@@H](C)O)[C@@H](C)O)C(=O)N[C@@H](CCC(N)=O)C(=O)N[C@@H](Cc1c[nH]c2ccccc12)C(=O)N[C@@H](CC(C)C)C(=O)N[C@H](C(N)=O)C(C)C) [SEQ ID NO: 229] | – | 10.8 -log M | 8 -log M
4 | H[Aib]EGTFTSDLSWLLEGAALQRFIQWLV-NH2 (N-terminus assumed; SMILES CC[C@H](C)[C@H](NC(=O)[C@H](Cc1ccccc1)NC(=O)[C@H](CCCNC(=N)N)NC(=O)[C@H](CCC(N)=O)NC(=O)[C@H](CC(C)C)NC(=O)[C@H](C)NC(=O)[C@H](C)NC(=O)CNC(=O)[C@H](CCC(=O)O)NC(=O)[C@H](CC(C)C)NC(=O)[C@H](CC(C)C)NC(=O)[C@H](Cc1c[nH]c2ccccc12)NC(=O)[C@H](CO)NC(=O)[C@H](CC(C)C)NC(=O)[C@H](CC(=O)O)NC(=O)[C@H](CO)NC(=O)[C@@H](NC(=O)[C@H](Cc1ccccc1)NC(=O)[C@@H](NC(=O)CNC(=O)[C@H](CCC(=O)O)NC(=O)C(C)(C)NC(=O)[C@@H](N)Cc1c[nH]cn1)[C@@H](C)O)[C@@H](C)O)C(=O)N[C@@H](CCC(N)=O)C(=O)N[C@@H](Cc1c[nH]c2ccccc12)C(=O)N[C@@H](CC(C)C)C(=O)N[C@H](C(N)=O)C(C)C) [SEQ ID NO: 228] | – | 10.8 -log M | 9.1 -log M
5 | H[Aib]EGTFTSDYSRLLEGAALQRFIQWLV-NH2 (N-terminus assumed; SMILES CC[C@H](C)[C@H](NC(=O)[C@H](Cc1ccccc1)NC(=O)[C@H](CCCNC(=N)N)NC(=O)[C@H](CCC(N)=O)NC(=O)[C@H](CC(C)C)NC(=O)[C@H](C)NC(=O)[C@H](C)NC(=O)CNC(=O)[C@H](CCC(=O)O)NC(=O)[C@H](CC(C)C)NC(=O)[C@H](CC(C)C)NC(=O)[C@H](CCCNC(=N)N)NC(=O)[C@H](CO)NC(=O)[C@H](Cc1ccc(O)cc1)NC(=O)[C@H](CC(=O)O)NC(=O)[C@H](CO)NC(=O)[C@@H](NC(=O)[C@H](Cc1ccccc1)NC(=O)[C@@H](NC(=O)CNC(=O)[C@H](CCC(=O)O)NC(=O)C(C)(C)NC(=O)[C@@H](N)Cc1c[nH]cn1)[C@@H](C)O)[C@@H](C)O)C(=O)N[C@@H](CCC(N)=O)C(=O)N[C@@H](Cc1c[nH]c2ccccc12)C(=O)N[C@@H](CC(C)C)C(=O)N[C@H](C(N)=O)C(C)C) [SEQ ID NO: 217] | 8.8 -log M | – | –
6 | H[Aib]EGTFTSDLSVLLEGAALQRFIQWLV-NH2 (N-terminus assumed; SMILES CC[C@H](C)[C@H](NC(=O)[C@H](Cc1ccccc1)NC(=O)[C@H](CCCNC(=N)N)NC(=O)[C@H](CCC(N)=O)NC(=O)[C@H](CC(C)C)NC(=O)[C@H](C)NC(=O)[C@H](C)NC(=O)CNC(=O)[C@H](CCC(=O)O)NC(=O)[C@H](CC(C)C)NC(=O)[C@H](CC(C)C)NC(=O)[C@@H](NC(=O)[C@H](CO)NC(=O)[C@H](CC(C)C)NC(=O)[C@H](CC(=O)O)NC(=O)[C@H](CO)NC(=O)[C@@H](NC(=O)[C@H](Cc1ccccc1)NC(=O)[C@@H](NC(=O)CNC(=O)[C@H](CCC(=O)O)NC(=O)C(C)(C)NC(=O)[C@@H](N)Cc1c[nH]cn1)[C@@H](C)O)[C@@H](C)O)C(C)C)C(=O)N[C@@H](CCC(N)=O)C(=O)N[C@@H](Cc1c[nH]c2ccccc12)C(=O)N[C@@H](CC(C)C)C(=O)N[C@H](C(N)=O)C(C)C) [SEQ ID NO: 227] | – | 10.5 -log M | 8.9 -log M
7 | H[Aib]EGTFTSDLSGLLEGAALQRFIQWLV-NH2 (N-terminus assumed; SMILES CC[C@H](C)[C@H](NC(=O)[C@H](Cc1ccccc1)NC(=O)[C@H](CCCNC(=N)N)NC(=O)[C@H](CCC(N)=O)NC(=O)[C@H](CC(C)C)NC(=O)[C@H](C)NC(=O)[C@H](C)NC(=O)CNC(=O)[C@H](CCC(=O)O)NC(=O)[C@H](CC(C)C)NC(=O)[C@H](CC(C)C)NC(=O)CNC(=O)[C@H](CO)NC(=O)[C@H](CC(C)C)NC(=O)[C@H](CC(=O)O)NC(=O)[C@H](CO)NC(=O)[C@@H](NC(=O)[C@H](Cc1ccccc1)NC(=O)[C@@H](NC(=O)CNC(=O)[C@H](CCC(=O)O)NC(=O)C(C)(C)NC(=O)[C@@H](N)Cc1c[nH]cn1)[C@@H](C)O)[C@@H](C)O)C(=O)N[C@@H](CCC(N)=O)C(=O)N[C@@H](Cc1c[nH]c2ccccc12)C(=O)N[C@@H](CC(C)C)C(=O)N[C@H](C(N)=O)C(C)C) [SEQ ID NO: 226] | – | 10.5 -log M | 8.3 -log M
